Measured values: US20180333469
Entries after “also recorded” stand apart in the source; their conditions may differ.

B1: fVIIa/TF enzyme complex (protein)
chain 1: ANAFLEELRPGSLERECKEEQCSFEEAREIFKDAERTKLFWISYSDGDQCASSPCQNGGSCKDQLQSYICFCLPAFEGRNCETHKDDQLICVNENGGCEQYCSDHTGTKRSCRCHEGYSLLADGVSCTPTVEYPCGKIPILEKRNASKPQGRIVGGKVCPKGECPWQVLLLVNGAQLCGGTLINTIWVVSAAHCFDKIKNWRNLIAVLGEHDLSEHDGDEQSRRVAQVIIPSTYVPGTTNHDIALLRLHQPVVLTDHVVPLCLPERTFSERTLAFVRFSLVSGWGQLLDRGATALELMVLNVPRLMTQDCLQQSRKVGDSPNITEYMFCAGYSDGSKDSCKGDSGGPHATHYRGTWYLTGIVSWGQGCATVGHFGVYTRVSQYIEWLQKLMRSEPRPGVLLRAPFP
chain 2: SGTTNTVAAYNLTWKSTNFKTILEWEPKPVNQVYTVQISTKSGDWKSKCFYTTDTECDLTDEIVKDVKQTYLARVFSYPAGNVESTGSAGEPLYENSPEFTPYLETNLGQPTIQSFEQVGTKVNVTVEDERTLVRRNNTFLSLRDVFGKDLIYTLYYWKSSSSGKKTAKTNTNEFLIDVDKGENYCFSVQAVIPSRTVNRKSTDSPVECMGQEKGEFREIFYIIGAVVFVVIILVIILAISLHKCRKAGVGQSWKENSPLNVS
B2: wild-type factor Xa (fXa) (protein)
chain 1: ANSFLEEMKKGHLERECMEETCSYEEAREVFEDSDKTNEFWNKYKDGDQCETSPCQNQGKCKDGLGEYTCTCLEGFEGKNCELFTRKLCSLDNGDCDQFCHEEQNSVVCSCARGYTLADNGKACIPTGPYPCGKQTLER
chain 2: IVGGQECKDGECPWQALLINEENEGFCGGTILSEFYILTAAHCLYQAKRFKVRVGDRNTEQEEGGEAVHEVEVVIKHNRFTKETYDFDIAVLRLKTPITFRMNVAPACLPERDWAESTLMTQKTGIVSGFGRTHEKGRQSTRLKMLEVPYVDRNSCKLSSSFIITQNMFCAGYDTKQEDACQGDSGGPHVTRFKDTYFVTGIVSWGEGCARKGKYGIYTKVTAFLKWIDRSMKTRGLPKAKSHAPEVITSSPLK

Target: tissue factor pathway inhibitor (TFPI), P10646
Sequence (P10646 whole entry, looked up): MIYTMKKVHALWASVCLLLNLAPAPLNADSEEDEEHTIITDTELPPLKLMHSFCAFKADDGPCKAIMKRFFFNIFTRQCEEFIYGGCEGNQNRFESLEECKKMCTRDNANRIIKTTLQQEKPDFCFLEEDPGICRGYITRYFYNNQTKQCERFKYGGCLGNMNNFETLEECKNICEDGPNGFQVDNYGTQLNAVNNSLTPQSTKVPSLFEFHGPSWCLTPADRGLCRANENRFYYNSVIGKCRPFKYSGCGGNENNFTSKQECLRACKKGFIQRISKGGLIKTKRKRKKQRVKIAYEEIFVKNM

Protein | fXa formation from fX (170 nM) by fVIIa/TF, measured by Spectrozyme-Xa cleavage | fXa chromogenic activity (cleavage of Spectrozyme-fXa, 100 µM) after 2 hour incubation
B1 | fXa combined with TFPI (included at the physiological concentration of 2.4 nM) and rapidly inhibited fVIIa/TF activity | 
B2 |  | For fXa at both 0.5 nM and 1 nM, a 2 nM concentration of TFPI was enough to almost completely inhibit the activity of fXa; also recorded: Such inhibition was also significant when TFPI's concentration was at 1 nM
